# Source: patent publication US20230144459A1, “SHEDDING BLOCKING AGENTS WITH INCREASED STABILITY” (BIOND BIOLOGICS LTD., priority 2020, published 2023)
# B1: 4A4: VHH clone binding the stalk region of human CD28, SEQ ID NO: 34 (protein)
# VHH: EVQLVESGGGLVQAGGSLRLSCAASGSLFSINAMAWYRQAPGKQRELVAAITSSGSTNYANSVKGRFTVSRDNAKNTMYLQMNSLKPEDTAVYYCVVDEYGSDYWIWGQGTQVTVSSAAAHHHHHH
# B2: 4A1: VHH clone binding the stalk region of human CD28, SEQ ID NO: 35 (protein)
# VHH: QVQLVESGGGLVQAGGSLRLSCAASGSIFSINAMGWYRQAPGKQRERVAAITSGGSTNYADSVKGRFTISRDNAKNTVYLQMNNLEPRDAGVYYCVVDLYGEDYWIWGQGTQVTVSSAAAHHHHHH
# Experiments:
# [1] = biological target: T1, human CD28 stalk region dimeric peptide (Homo sapiens, UniProt P10747); test: CD28 stalk region binding assay (ELISA), wild-type peptide; conditions: serial dilution ELISA
# T1 construct: purchased Genecust Europe (custom synthesis, stated for the tagged peptide); host or cells: synthetic peptide
# [2] = biological target: T2, CD28 shedding in isolated human CD4 T cells (Homo sapiens, UniProt P10747); test: CD28 shedding in isolated CD4 T cells activated by PHA and IL2; assay type: cell-based; conditions: 5 μg/mL PHA, 200 IU/mL IL-2; 0.4-50 μg/mL
# T2 construct: endogenous in cells; host or cells: CD4 T cells and PBMCs from fresh blood of healthy donors
# [3] = biological target: T3, CD28 shedding in HEK cells overexpressing human CD28 (Homo sapiens, UniProt P10747); test: HEK spontaneous CD28 shedding assay; assay type: cell-based; conditions: 48 hr, 3.3-100 μg/mL
# T3 construct: HEK293 cells overexpressing human full-length CD28 were analyzed; expressed in transfected cells
# [4] = biological target: T4, CD28 shedding in PBMC (Homo sapiens, UniProt P10747); test: CD28 shedding in PBMC activated by superantigen (SEB); assay type: cell-based; conditions: 1 ng/mL SEB; 0.4-50 μg/mL
# T4 construct: endogenous in cells; host or cells: CD4 T cells and PBMCs from fresh blood of healthy donors
# Protocol: FIG. 9. […] Levels of soluble CD28 were measured in culture media of isolated PBMC stimulated with 1 ng/mL SEB (light grey bar). […] The levels of soluble human CD28 in the supernatant were quantified with standardized sandwich ELISA (R&D system).
# Cellular assays evaluating anti shedding activity of VHH—For SEB activation of PBMCs, 0.1×10^6 PBMCs were stimulated with […] SEB (Sigma, Cat. No. S4881) for 5-7 days at 37° C. with/without the indicated concentrations of various treatments in 96 well plates. For PHA activated T cells, 0.1×10^6 CD4 T cells were incubated with the indicated concentration of Phytohemagglutinin (Sigma, Cat. No. L8902) and 200 IU/mL of IL-2 (Proleukine) for 5-7 days at 37° C. with/without the indicated concentrations of various treatments in 96 well plates. For HEK spontaneous CD28 shedding assay, 0.1×10^5 HEK cells were incubated for 48 hours at 37° C. with/without the indicated concentrations of various treatments in 96 well plates.
Molecule,binding to human CD28 stalk region peptide (in words) [1],"inhibition of CD28 shedding, CD4 T cells activated by PHA and IL2 [2]","inhibition of CD28 shedding, HEK cells overexpressing human CD28 [3]","inhibition of CD28 shedding, PBMC activated by SEB [4]"
B1,bind specifically,inhibit CD28 shedding,inhibit CD28 shedding,inhibit CD28 shedding
B2,bind specifically,,,
